In patent publication US20130018176A1, “METHODS OF PRODUCING HYBRIDOMAS AND MONOCLONAL ANTIBODIES AND ANTIBODIES PRODUCED THEREBY” (AMGEN INC., priority 2007, published 2013):
Like-named read-outs stand apart in the source and are kept apart here.

Legend:
[1] = Biological activity of hepcidin variants; settings: chemically synthesized hepcidin variants
Description: A number of hepcidin variants were chemically synthesized according to the general procedure described in Example 4. A variant of hepcidin lacking the five amino acids at the N-terminus, designated “hepcidin 20” or “hepc20,” was synthesized. A linear hepcidin variant in which all eight cysteine residues were replaced with 2-aminobutyric acid, thus completely abolishing the ability to form disulfide bonds, was also synthesized. A C1-C8, C3-C6 hepcidin variant, in which cysteines 2, 4, 5 and 7 were substituted with 2-aminobutyric acid to allow formation of only two disulfide bonds (C1-C8 and C3-C6), was also synthesized.
Similar results were produced using hepcidin containing its native cysteine residues, when the molecule was in a fully-reduced state (i.e., no disulfide connectivity). This reduced material was not stable, however, and regained biological activity over time.

human hepcidin [2] = molecular target: T1, human hepcidin (Homo sapiens, UniProt P81172); settings: in vivo
human hepcidin [3] = molecular target: T1, human hepcidin; assay: Combination of anti-hepcidin antibody and darbepoetin alfa in viral hepcidin over-expression model; type: in vivo; settings: AAV-human hepcidin mice
Description: Male C57BL/6 mice were injected with AAV (5×10^12 particles/mouse, I.V.) containing genes coding for either human hepcidin or GFP as an expression control (n=5 per group). After allowing two weeks to establish constitutive protein expression, mice were bled to determine baseline hemoglobin (Hb) levels, then treated with Ab 2.7 (1 mg/mouse) or isotype control at various dose frequencies. On the day after the first dose, they were treated with darbepoietin alfa ([…], subcutaneous). A schematic of the dosing schedule appears in FIG. 15A.
Neutralization of hepcidin restores responsiveness to darbepoetin alfa. […] (See FIG. 15D.) Antibody dose and proximity of antibody dose to darbepoietin alfa treatment affected overall Hb response to anti-hepcidin antibody treatment, as shown in FIG. 15E (results varying from the control where p<0.01 by ANOVA with Dunnett's post-hoc test are noted with double asterisks).

[4] = molecular target: T2, mature human hepcidin (SEQ ID NO: 9) (Homo sapiens, UniProt P81172); assay: Epitope specificity: antibody binding to immobilized hepcidin surface after pre-complex with hepcidin variants (BIAcore); settings: interpretation of Table 6
T2 construct: made in house; host or cells: recombinant
T2 sequence (P81172 60-84): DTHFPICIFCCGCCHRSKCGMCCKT
Description: (§1) The epitope specificity of anti-human hepcidin antibodies was evaluated by assessing ability of the antibodies to bind to mature human hepcidin (SEQ ID NO: 9) after pre-complex formation with different hepcidin variants.
(§2) Recombinant hepcidin was immobilized on a CM5 chip according to manufacturer's instructions at a flow rate 10 μL/min of running buffer (DPBS: Dulbecco's Phosphate Buffer Saline1X, GIBCO 14190, with 0.005% BIAcore surfactant P-20). The carboxylated matrix of the sensor chip was first activated with a 100 μL injection of 1:1 mixture of EDC (75 mg/mL N-ethyl-N-(dimethylamine-propyl)carbodiimide in water, from Biacore) and NHS (11.5 mg/mL N-hydroxysuccinimide in water, from Biacore). 180 μL of rhHepc (˜20 μg/ml in 10 mM Na-acetate pH4.0) was injected to immobilize onto the sensor chip at 30 μL/min. The excess reactive groups of the sensor chip were deactivated with an injection of 100 μL of ethanolamine (1.0M, from Biacore).
(§3) Forms of hepcidin used for the pre-complex were: correctly folded hepcidin as a positive control, the C1-C8, C3-C6 hepcidin variant (see Example 9), hepcidin 20 (N-terminally truncated, see Example 9) and linear hepcidin (Example 9). 1 nM solutions of antibody (2.41, 2.7, 43, and R9) were preincubated with 10 nM of each antigen at room temperature for several hours before run through the immobilized hepcidin surface. The binding signal obtained was proportional to the concentration of free antibody in solution at equilibrium.
(§4) Some antibodies require the five amino acids at the N-terminus of the molecule (e.g. Ab43 and to a lesser extent, R9).

[5] = system: mature human hepcidin (SEQ ID NO: 9); assay: as above; settings: interpretation of Table 6
Description: as §1, §2, §3, §4

synthetic human hepcidin = molecular target: T3, synthetic human hepcidin (Homo sapiens, UniProt P81172); assay: Iron-responsive beta-lactamase assay in 293/Fpn/BLA cells; type: cell-based; settings: 50 ng/mL synthetic human hepcidin, 2.5 ug/mL ferric citrate, read-out: EC50, decreased intracellular concentration of iron
T3 construct: made in house; host or cells: chemical synthesis (Fmoc solid phase), oxidatively folded
T3 sequence (P81172 60-84 limits assumed): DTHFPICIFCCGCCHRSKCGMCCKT
Description: The effect of anti-human hepcidin antibodies on this hepcidin-mediated iron sequestration was evaluated in vitro. […] These 293/Fpn/BLA cells, taken from a 70-80% confluent culture, were plated at 2.8×10^5 cells/mL in DMEM (Invitrogen Cat#11965) 5% FBS (Invitrogen Cat#10099-141) PSQ (Invitrogen Cat#10378-016), 90 uL/well (25,000 cells/well) in BioCoat Poly-D Lysine coated plates (Becton-Dickinson Cat#35-6640) and incubated at 37C with 5% CO2. At the end of the same day, a solution of assay medium (DMEM 5% FBS PSQ) with 100 ug/mL doxycycline was made, 10 uL/well of it added to the plate, and the plate incubated overnight or for at least 20 hours. […] Mixtures were added at 100 uL/well and incubated overnight at 37C, 5% CO2 in a cell culture incubator. Plates were then removed from the incubator and equilibrated to room temperature for 10 minutes before adding 20 uL/well of the prepared Invitrogen GeneBlazer CCF4 A/M development reagent (Invitrogen Kit# K1085) and incubating for 90 minutes in the dark. Development reagent was also added to 16 wells of a control assay plate without cells containing 100 uL assay medium (DMEM 5% FBS PSQ) and incubated for the same time. Blue & Green fluorescence signals were then read on an Envision Multilabel Reader (Perkin-Elmer Inc.) by exciting at 409 nm and reading emissions at 447 nm (blue) and 520 nm (green).

human hepcidin [6] = molecular target: T4, human hepcidin (Homo sapiens, UniProt P81172); assay: Neutralization of injected human hepcidin in mice (hypoferremic response); type: in vivo; settings: female C57BL/6 mice; for protection from the hypoferremic response (serum iron): serum iron two hours later
T4 construct: The pro-region of the protein was enzymatically cleaved by incubation with Kex protease; made in house; host or cells: E. coli
T4 sequence (P81172 60-84 limits assumed): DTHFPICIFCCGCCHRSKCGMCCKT
Description: Activity of anti-human hepcidin antibodies was evaluated in vivo in mice that were administered human hepcidin in an amount sufficient to generate a hypoferremic response. On day 0, female C57BL/6 mice were injected subcutaneously with a murine monoclonal antibody (Ab2.7) directed against human hepcidin. Control mice received murine IgG1 as an isotypic control. At day 3, the mice received a single intraperitoneal injection of 25 μg E. coli-derived recombinant human Hepcidin (rhHepc). Serum iron levels were analyzed two hours later. […] Statistics represent ANOVA with a Dunnett's post-hoc test comparing all groups against the saline control.

human hepcidin [7] = molecular target: T1, human hepcidin; assay: Antibody neutralization of AAV-delivered human hepcidin in mice; type: in vivo; settings: 1 mg/mouse
Description: AAV-mediated human hepcidin expression in mice produces a microcytic, hypochromic anemia consistent with iron deprivation. The activity of anti-human hepcidin antibodies was evaluated in vivo in these mice overexpressing human hepcidin. Male C57B1/6 mice were injected with AAV (1.5×10^12 particles/mouse, I.V.) containing expression cassettes for either human hepcidin or beta-galactosidase (β-gal) as a negative control. The mice were left for two weeks to allow constitutive production of huHepc before being treated with 1 mg/mouse of Ab 2.7 or isotype control (muIgG1) at various dosing frequencies (1×, 2× and 4× per week) as shown in FIG. 12A. Blood was drawn on the fifth day for serum iron levels and determination of early red blood cell (reticulocyte) characteristics (reticulocyte count, reticulocyte hemoglobin content (CHr), and reticulocyte mean cell volume (Retic. MCV))
Statistical comparisons to β-gal injected animals with isotype control treatment were determined to look for restoration of normal red cell characteristics (ANOVA with Dunnett's post-hoc test).

[8] = molecular target: T5, E. coli-derived human hepcidin (Homo sapiens, UniProt P81172); assay: Biacore concurrent binding to hepcidin captured on antibody 1S1 surface (sandwich pairing); settings: 20 nM hepcidin on 1S1 surface, then 50 nM antibody
T5 construct: The pro-region of the protein was enzymatically cleaved by incubation with Kex protease; made in house; host or cells: E. coli
T5 sequence (P81172 60-84 limits assumed): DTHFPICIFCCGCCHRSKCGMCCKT
Description: Using Biacore analysis, a surface coated with antibody 1S1 was tested for the concurrent binding of hepcidin and another antibody (FIG. 28). Immobilization of anti-Hepc antibody 1S1 to the sensor chip surface was performed according to manufacturer's instructions using a continuous flow of 0.005% P-20/PBS buffer. Briefly, carboxyl groups on the sensor chip surfaces were activated by injecting 60 μL of a mixture containing 0.2 M N-ethyl-N′-(dimethylaminopropyl)carbodiimide (EDC) and 0.05 M N-hydroxysuccinimide (NHS). This was followed by injecting 1S1 diluted in 10 mM acetate, pH 4.0 at concentrations between 20 μg/mL. Excess reactive groups on the surfaces were deactivated by injecting 60 μL of 1 M ethanolamine. Final immobilized levels were 5,000-6,000 resonance units (RU) for the Ab 1S1 surface. A blank, mock-coupled reference surface was also prepared on the sensor chip. 20 nM E. coli-derived human hepcidin was injected over and bound to the 1S1 antibody surface. Then 50 nM antibody 2.7, 23F11, 26F11, and 1S1 were injected over the hepcidin/1S1 surface. After the antibody injection, the surfaces were regenerated by injecting 30 μL 10 mM HCl pH 2.0.

Molecule: hepc20: variant of hepcidin lacking the five amino acids at the N-terminus (SEQ ID NO: 96) (ICIFCCGCCHRSKCGMCCKT)
- biological activity [1]: severely diminished biological activity

B1: Antibody 2.7: murine human hepcidin-specific monoclonal antibody raised against KLH-conjugated hepcidin; CDRs SEQ ID NOs: 28-33 (antibody, V domains shown)
VH: QIQLVQSGPELKKPGETVKISCKASGYTFTTYGMSWVKQAPGKGLKWMGWINTYSGVPTYADDFKGRFAFSLETSASTAYLQINNLKNEDTATYFCGRDHYYGEVAYWGQGTLVTVSA
VL: DIVLTQSPASLAVSLGQRATISCRASESVDSYGNSFMHWYQQKPGQPPKLLIYRASNLESGIPARFSGSGSRTDFTLTINPVEADDVATYYCHQSNEEYTFGGGTKLEIK
- response to darbepoietin alfa (Hb levels) (human hepcidin [2]): did not respond
- responsiveness to darbepoietin alfa (hemoglobin levels) (human hepcidin [2]): restored responsiveness
- response to darbepoietin alfa (increase in Hb levels) (human hepcidin [3]; antibody 1 mg/mouse Monday-Wednesday-Friday dosing plus darbepoietin alfa): partial response
- response to darbepoietin alfa (Hb levels) (human hepcidin [3]; antibody 1 mg/mouse daily (Monday through Friday) plus darbepoietin alfa): maximal response
- Hb levels (human hepcidin [3]; antibody Monday-Wednesday-Friday dosing without darbepoietin alfa): no rise in Hb levels
- response to darbepoietin alfa (Hb levels) (human hepcidin [3]; two and three doses of antibody plus darbepoietin alfa): partial response
- Binding to Solution Epitopes, Folded Hepcidin [4]: ++++ (0% antibody binding to the hepcidin surface and therefore 100% inhibition by hepcidin in solution)
- Binding to Solution Epitopes, C1-C8 C3-C6 [5]: ++++ (0% antibody binding to the hepcidin surface and therefore 100% inhibition by hepcidin in solution)
- Binding to Solution Epitopes, Linear Hepcidin [5]: − (100% antibody binding to the hepcidin surface and therefore no inhibition by hepcidin in solution)
- EC50 (synthetic human hepcidin): 17 nM
- hypoferremia (serum iron) (human hepcidin [6]; 0.25 mg antibody s.c. day 0, 25 μg rhHepc i.p. day 3): reduction in hypoferremia
- protection from the hypoferremic response (serum iron) (human hepcidin [6]; 0.5 mg antibody s.c. day 0, 25 μg rhHepc i.p. day 3): statistically significant protection from the hypoferremic response
- protection from the hypoferremic response (serum iron) (human hepcidin [6]; 1 mg antibody s.c. day 0, 25 μg rhHepc i.p. day 3): statistically significant protection from the hypoferremic response
- neutralization of hypoferremic response (human hepcidin [6]; lower doses (0.25 and 0.1 mg) of antibody): non-neutralizing doses
- Serum iron levels (human hepcidin [7]; AAV-human hepcidin male C57B1/6 mice, 4× per week): restored to normal
- reticulocyte mean cell volume (Retic. MCV) (human hepcidin [7]; AAV-human hepcidin mice, 1× dose): microcytosis is still present
- reticulocyte hemoglobin content (CHr) (human hepcidin [7]; AAV-human hepcidin mice, 1× dosing): hypochromicity is still seen
- reticulocyte mean cell volume (Retic. MCV) (human hepcidin [7]; AAV-human hepcidin mice, 2× dose): restores normal volume
- reticulocyte hemoglobin content (CHr) (human hepcidin [7]; AAV-human hepcidin mice, 2× dosing): normal
- reticulocyte mean cell volume (Retic. MCV) (human hepcidin [7]; AAV-human hepcidin mice, 4× dose): restores normal volume
- reticulocyte hemoglobin content (CHr) (human hepcidin [7]; AAV-human hepcidin mice, 4× dosing): normal
- reticulocyte production (reticulocyte count) (human hepcidin [7]; AAV-human hepcidin mice, all dosing frequencies (1×, 2×, 4× per week)): increased reticulocyte production
- ability to bind hepcidin concurrently with 1S1 (sandwich pair) [8]: not able to form a sandwich pair with 1S1
